B1: NHase Seq ID No. 6 and 8: nitrile hydratase of Raoultella terrigena strain 37.1, α-subunit SEQ ID NO 6, β-subunit SEQ ID NO 8 (protein)
alpha: MSHKHDHDHTEPPIDIELRVRALESLLQEKGLIDPAALDELIDTYEHKVGPRNGAQVVARAWSDPEYKRRLMENATAAISELGFSGIQGEDMLVVENTPDVHNVTVCTLCSCYPWPVLGLPPVWYKSAPYRSRIVIDPRGVLAEFGLHIPESKEIRVWDSSAELRYLVLPERPAGTDGWSEAQLSELISRDSMIGTGVVTAP
beta: MNGIHDLGGMHGFGPIPTEENEPYFHHEWERRVFPMFASLFVGGHFNVDEFRHSIECMPPADYLQSSYYEHWLHAFETLLLAKGVITVDELWGGAKPTLCKPGTPVLTQDMVSMVVSTGGSARVSHDVAPRFRVGDRVRTKNFNPTTHTRLPRYARDKVGRIEIAHGVFITPDTAAHGLGEHPQHVYSVSFTAQELWGEPRPDNVFIDLWDDYLEEA
modifications: Raoultella terrigena, strain 37.1
B2: NHase Seq ID No. 10 and 12: nitrile hydratase of Pantoea sp. strain 17.3.1, α-subunit SEQ ID NO 10, β-subunit SEQ ID NO 12 (protein)
alpha: MSNHDVLPSESALKVRAIQSLLTEKGLLDPQTSDAIVDYFENKIGPRNGASVVARAWLDAEFKKKLLEDGTTAISEMGFSGAEGAVIHVLENTDAVHNIVVCTLCSCYPWPVLGLPPIWFKSAQYRSRVVIDPRGVLKEFGTELPPEKEIRVWDSNAEIRYFVLPQRPAGTENLSEEQLAARVTRDSMIGTGIL
beta: MNGIHDCGGMQNLGAIPLEENEPVFHAEWEKAILVMTINGFLSGSILVDNFRHQIEKMPASEYLLTSYYEHWVFAMEHLLINNNTITREALESRMAELAERVEMSAIAKETFLELIKTTPNYHRESDAIARFAPGDTIRTCELNTPGHTRLPRYARDKTGVIIAMYGVCVFPDSLTRDGSEDPQHVYLVQFSSADLWGAGSEPFTVSLSLFESYIAEKVE
modifications: Pantoea sp., strain 17.3.1
B3: NHase Seq ID No. 14 and 16: nitrile hydratase of Brevibacterium linens strain 32B.1, α-subunit SEQ ID NO 14, β-subunit SEQ ID NO 16 (protein)
alpha: MSDKIRSQEEIAARVKALESMLIEKGIMTTQAIDRLVEIYENEVGPQLGAKVVAKAWSDPGFKSRLLTDATGACGELGIGGLQGEDMVVVEDTDTVHNVIVCTLCSCYPWPVLGLPPNWYKDPQYRAAICREPRKVLSESFGYTVSNDVEIRVWDSSSEMRYWVLPRRPDGTDGWTEDQLADLVSRDSMIGVGPTAKAQS
beta: MNGVFDLAGTDGLGPVVVPDDEPIFRAEWEKAAFGMFSMCFRGGFFGVDQFRYGMEQIDPAVYLKSPYYEHWIHTVEYHGERTGQLDLDELDRRTEYYLANPDAPMPEHADDPELLAFINAVVPAGAPAKRESDKIARFQVGDTVKVLRDSPRGHTRRARYIRGATGEIVLAHGTFIYPDTAGNNLGECPEHVYTVRFTAEELWGAETAEPNQSVYFDVWDPYIELVTPRGAQSA
modifications: Brevibacterium linens, strain 32B.1

Legend:
Assay type in all cases: biochemical
[1] = test system: NHase from Klebsiella oxytoca, 38.1.2; assay: Substrate spectrum, relative activity of the NHase from strain 38.1.2; details: lyophilized cells; 2-phenylpropionitrile set to 100%
Experimental: (§1) If not otherwise indicated enzyme samples were prepared as follows: the cells from 1 ml of the culture were washed with 50 mM Tris/HCl pH 7.5 and resuspended in 750 μl of the same buffer. This suspension was incubated at 30° C. in a thermomixer at 1000 rpm. The biotransformation was started by addition of the substrate 2-phenylpropionitrile (PPN) in 50 mM Tris/HCl pH 7.5. The concentration of the substrate was 1 mM, if not otherwise stated. The reaction was stopped after 1 min, 5 min or 10 min as indicated by addition of 1 M HCl. Cells were removed by centrifugation and the supernatant analysed by HPLC for the presence of the corresponding amide. The HPLC analysis was carried out on a system comprising a Surveyor 4 channel Pump, AutoSampler and UVNIS detector at 210 nm from Thermo Finnigan on a Grom-Sil 1200DS-3 cp 3 μm (125×4.6 mm) reverse phase column. As mobile phase, acetonitrile and 0.3% H3PO4 were used in a ratio of 50:50 at a flow of 0.7 ml/min, respectively.
(§2) For the enzyme according Seq ID No. 2 and 4 (Raoultella terrigena, 77.1) and Seq ID. No. 18 and 20 (Klebsiella oxytoca, 38.1.2) the substrate spectrum was determined. The activities were compared to the activity towards 2-phenylpropionitrile which was set to 100%. Both enzymes are capable of the conversion of aliphatic as well as aromatic substrates.

[2] = test system: NHase from Raoultella terrigena, 77.1; assay: Substrate spectrum, relative activity of the NHase from strain 77.1; details: cell free crude cell extracts; 2-phenylpropionitrile set to 100%
Experimental: as §1, §2

[3] = Enantioselectivity of NHases towards rac-2-phenylpropionitrile (washed cells, chiral HPLC); details: for E-value: kinetic resolution of rac-2-phenylpropionitrile; for enantiopreference: rac-2-phenylpropionitrile
Experimental: (§3) For the determination of enantioselectivity towards rac-mandelonitrile and 2-phenylpropionitrile 40-50 mg of washed cells were resuspended in 1 ml of 50 mM Tris/HCl pH 7.5. 100 μl of cell suspension were mixed with 800 μl 50 mM Tris/HCl pH 7.5 and incubated at 30° C. in a thermomixer at 1000 rpm. The biotransformation was started by addition of 100 μl of 10 mM rac-mandelonitrile or rac-2-phenylpropionitrile in 50 mM Tris/HCl pH 7.5. The reaction was stopped by addition of 100 μl 1M HCl after 1, 5 or 10 min. Cells were removed by centrifugation and the supernatant analysed by chiral HPLC for the presence of mandeloamide and phenylpropionamide, respectively. rac-Mandeloamide was analysed on a HPLC comprising a Surveyor 4 channel Pump, AutoSampler and UVNIS detector at 210 nm from Thermo Finnigan on a Nucleodex β-OH column (Macherey & Nagel) using 50% methanol/water:water (40:60) as mobile phase at a flow rate of 0.7 ml/min. The apparent enantiomeric ratio (Eapp) of the conversion of mandelonitrile was calculated according to Straathof and Jongejan for asymmetric catalysis (see example 9). In case of 2-phenylpropionamide, the samples were lyophilized and resuspended in n-hexane: 2-propanol (80:20). Prior to injection, the samples were additionally dried with sodium sulfate and were centrifugated at 16,000 g for 5 min. The supernatants were analyzed using a Chiracel OD column (Daicel) on a Spectra System (AS3000, P2000, UV2000 at 210 nm) from Thermo Separation Products with n-hexane: 2-propanol (80:20) as mobile phase at a flow rate of 0.5 ml/min. The enantiomeric ratio (E) of the conversion of PPN was calculated according to Chen et al.

[4] = Activity of enzyme samples after heterologous expression of NHases in E. coli towards PPN; details: 1 mM PPN; stopped after 1 min; host E. coli BL21 (DE3) (a) or E. coli Rosetta (DE3) (b)
Experimental: The amplified α-subunits were ligated to pET22b whereas the β-subunits were ligated to pET26b by use of the unique NdeI and XhoI restriction enzyme recognition sites. E. coli BL21 (DE3) or E. coli Rosetta (DE3) was cotransformed with the vectors carrying the genes for the corresponding α- and β-subunits of the NHases. Freshly transformed cells were grown over night at 37° C. in 5 ml LB-medium containing 100 μg/ml ampicillin, 25 μg/ml kanamycin and 2% (w/v) glucose. In case of E. coli Rosetta (DE3) 12.5 μg/ml chloramphenicol was additionally used. 1 ml of this culture was used to inoculate 100 ml of LB-medium containing 100 μg/ml ampicillin, 25 μg/ml kanamycin and 1% (w/v) glucose. Cells were incubated at 20° C. or 30° C. on a gyratory shaker at 100 rpm. At an optical density O.D.595=1 cells were induced by addition of 100 μg/ml IPTG. Simultaneously, CoCl2*6H2O was added in a concentration of 250 μM. When the P16K activator protein from the strain Brevibacterium linens was coexpressed with the corresponding NHase E. coli Rosetta (DE3) pET22—32B1α pET26—32B.1β pBBR5—32B_P16K was grown in LB-medium containing 100 μg/ml ampicillin, 25 μg/ml kanamycin, 12.5 μg/ml chloramphenicol and 10 μg/ml gentamycin and 1% (w/v) glucose. Samples were taken 24 h after induction.
as §1

[5] = Enantioselectivity of NHases towards rac-mandelonitrile (washed cells, chiral HPLC); details: for enantiopreference: (R/S)-mandelonitrile; for Eapp-value: kinetic resolution of (R/S)-mandelonitrile; for Eapp-value heterologously expressed / Eapp-value homologously expressed: rac-mandelonitrile; for Eapp-value heterologously expressed: heterologously expressed NHase; for Eapp-value homologously expressed: homologously expressed NHase
Experimental: as §3, with “al. […]” for “al.”

Molecule | rel. activity 38.1.2 [1] [%] | rel. activity 77.1 [2] [%] | E-value [3] | enantiopreference [3] | spec. activity [4] [μkat/g cdw] | vol. activity [4] [μkat/L cultur] | enantiopreference [5] | Eapp-value [5] | Eapp-value heterologously expressed [5] | Eapp-value homologously expressed [5]
CCC(C#N)c1ccccc1 (stereo not drawn) [2-phenyl-butyronitrile] | 18 | 1 |  |  |  |  |  |  |  | 
CC(C#N)c1ccccc1 (stereo not drawn) [2-phenyl-propionitrile] | 100 | 100 |  |  |  |  |  |  |  | 
N#Cc1cccnc1 [3-cyanopyridine] |  | 21 |  |  |  |  |  |  |  | 
N#Cc1ccccc1 [benzonitrile] | 25 | 18 |  |  |  |  |  |  |  | 
N#CC(O)c1ccccc1 (stereo not drawn) [mandelonitrile] | 9 | 5 |  |  |  |  |  |  |  | 
N#CCc1ccccc1 [phenyl-acetonitrile] | 1 | 1 |  |  |  |  |  |  |  | 
butyronitrile | 281 | 242 |  |  |  |  |  |  |  | 
methacrylonitrile | 138 | 109 |  |  |  |  |  |  |  | 
B1 |  |  | 47 | (S) | 2.8 | 5.5 | (S) | 18 | 18 | 17
B2 |  |  | 2 | (S) | 0.4 | 0.6 | (S) | 4 | 4 | 5
B3 |  |  | 8 | (S) | 16.9 | 25.3 | (S) | 4 | 4 | 4
